In patent US20050118729A1 (published 2005):

Target: T1, α4β1 integrin expressed on Jurkat cells (human, UniProt P13612 34-1032; P05556 21-798)
T1 construct: whole, on cells; Cells labeled with a fluorescent dye (Cyto 82); also called receptor recognizing the CS1 peptide
Assay: cell adhesion of labeled Jurkat cells on microarray
Description: Jurkat T-cells, a human leukemia line, were grown under the appropriate growing conditions. Shortly before the adherence assay, cells were washed with 5 mM EDTA in Tris-buffered saline (TBS, 10 mM Tris-HCl, pH 7.4, 150 mM NaCl) and then incubated with Cyto 82 (2 μM final concentration) for 30 min under continuous agitation. Labeled cells were washed twice with the same buffer and applied directly on the fabricated microarray slides.
The model of interaction chosen for this purpose was α4β1-CS1-interaction model. α4β1 is an integrin expressed by several types of adherent cells and can mediate cell matrix contact trough the known ligand fibronectin. […] The slides were washed extensively and the interaction was scanned by the microarray scanner (FIG. 10).

T1 sequence (P13612 34-1032, chain 1 of 2): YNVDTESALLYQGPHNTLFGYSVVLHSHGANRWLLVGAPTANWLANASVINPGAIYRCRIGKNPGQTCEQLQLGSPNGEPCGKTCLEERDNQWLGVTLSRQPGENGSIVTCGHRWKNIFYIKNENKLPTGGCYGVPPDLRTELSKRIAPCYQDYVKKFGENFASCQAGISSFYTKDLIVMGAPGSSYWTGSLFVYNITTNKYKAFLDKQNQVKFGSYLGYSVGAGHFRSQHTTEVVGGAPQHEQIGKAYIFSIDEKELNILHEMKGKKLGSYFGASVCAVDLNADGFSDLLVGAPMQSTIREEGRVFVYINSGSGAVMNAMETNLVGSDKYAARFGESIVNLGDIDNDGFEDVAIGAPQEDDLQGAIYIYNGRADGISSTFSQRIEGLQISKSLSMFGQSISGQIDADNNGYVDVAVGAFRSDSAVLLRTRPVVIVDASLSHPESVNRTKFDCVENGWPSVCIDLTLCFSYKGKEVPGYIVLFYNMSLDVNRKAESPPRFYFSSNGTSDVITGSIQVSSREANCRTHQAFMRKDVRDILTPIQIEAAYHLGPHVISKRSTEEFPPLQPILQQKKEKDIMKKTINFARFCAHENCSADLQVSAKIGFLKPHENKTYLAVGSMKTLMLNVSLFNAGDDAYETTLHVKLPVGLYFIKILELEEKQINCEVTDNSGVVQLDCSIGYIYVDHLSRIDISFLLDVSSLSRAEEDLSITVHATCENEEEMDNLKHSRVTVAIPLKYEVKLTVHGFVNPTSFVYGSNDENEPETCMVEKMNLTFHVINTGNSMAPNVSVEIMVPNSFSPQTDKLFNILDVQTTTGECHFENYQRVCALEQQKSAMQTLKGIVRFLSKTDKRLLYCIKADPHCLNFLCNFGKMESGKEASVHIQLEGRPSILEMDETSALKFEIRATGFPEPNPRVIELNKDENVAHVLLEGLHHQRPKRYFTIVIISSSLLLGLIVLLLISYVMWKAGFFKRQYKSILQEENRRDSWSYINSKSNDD
T1 sequence (P05556 21-798, chain 2 of 2): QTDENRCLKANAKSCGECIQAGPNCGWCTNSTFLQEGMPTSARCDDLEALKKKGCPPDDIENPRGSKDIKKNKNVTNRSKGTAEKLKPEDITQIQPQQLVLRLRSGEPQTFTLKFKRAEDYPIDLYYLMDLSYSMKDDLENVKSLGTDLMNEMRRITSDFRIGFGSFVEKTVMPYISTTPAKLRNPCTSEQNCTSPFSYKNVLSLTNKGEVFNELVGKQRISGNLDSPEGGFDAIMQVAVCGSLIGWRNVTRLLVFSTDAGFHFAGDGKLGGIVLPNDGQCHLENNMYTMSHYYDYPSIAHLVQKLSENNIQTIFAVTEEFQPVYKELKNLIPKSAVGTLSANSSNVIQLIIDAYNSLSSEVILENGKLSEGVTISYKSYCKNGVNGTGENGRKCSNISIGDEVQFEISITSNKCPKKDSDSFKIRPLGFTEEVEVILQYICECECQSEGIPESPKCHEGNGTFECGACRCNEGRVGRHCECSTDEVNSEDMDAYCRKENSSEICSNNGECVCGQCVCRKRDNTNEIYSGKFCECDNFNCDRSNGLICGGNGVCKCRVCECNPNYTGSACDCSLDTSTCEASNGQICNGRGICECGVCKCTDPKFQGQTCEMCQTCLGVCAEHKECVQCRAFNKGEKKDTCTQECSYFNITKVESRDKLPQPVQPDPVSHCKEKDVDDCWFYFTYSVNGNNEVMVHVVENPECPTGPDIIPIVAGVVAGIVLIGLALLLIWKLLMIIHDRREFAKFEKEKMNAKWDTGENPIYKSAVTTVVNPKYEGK

B1: recombinant protein comprising the cellulose binding region of SEQ ID NO 4 (cellulose binding recombinant protein of Example 1) (other)
chain: NATPTKGATPTNTATPTKSATATPTRPSVPTNTPTNTPANTPVSGNLKVEFYNSNPSDTTNSINPQFKVTNTGSSAIDLSKLTLRYYYTVDGQKDQTFWCDHAAIIGSNGSYNGITSNVKGTFVKMSSSTNNADTYLEISFTGGTLEPGAHVQIQGRFAKNDWSNYTQSNDYSFKSASQFVEWDQVTAYLNGVLVWGKEPGGSVVPSTQPVTTPPATTKPPATTKPPATTIPPSDDPNA
**Q.** Does B1 bind?
**A.** no binding (tested: highest array concentration)
